Data from patent US20220380484A1 (MONASH UNIVERSITY, published 2022).

Experiments:
plasminogen (human) [1] = target: plasminogen (human) (UniProt P00747); experiment: cell-based or functional assay
plasminogen (human) [2] = target: plasminogen (human) (UniProt P00747); experiment: SPR (Biacore T200), antibody immobilised; FIG. 1
[3] = target: unactivatable mutant of plasminogen (recombinant plasminogen labelled with Alexa-Fluor 647) (human) (UniProt P00747); experiment: flow cytometry: 22.2 nM Alexa-Fluor 647 plasminogen on Group A Streptococcus cells with 2.22 µM G05
plasminogen (human) [4] = target: plasminogen (human) (UniProt P00747); experiment: SPR, multi-cycle; G05 immobilised on the chip, plasminogen injected as analyte; 1:1 Langmuir fit
plasmin = target: T1, plasmin (human, UniProt P00747 20-580; P00747 581-810); experiment: SPR, multi-cycle; G05 immobilised on the chip, plasmin injected as analyte; 1:1 Langmuir fit
T1 construct: Bought plasmin (Haematologic Technologies) is named in the activity assay; also called Plm; PLM
From the text: Dotted lines represent 1:1 Langmuir model fit to experimental data.

[5] = target: unactivatable mutant of plasminogen (recombinant plasminogen labelled with Alexa-Fluor 647) (human) (UniProt P00747); experiment: SDS-PAGE fluorescence scan of the bound fraction: 0.2 µM labelled plasminogen on Group A Streptococcus cells with 7.5 µM G05
plasminogen (human) [6] = target: plasminogen (human) (UniProt P00747); experiment: SPR (Biacore T200), antibody immobilised; FIG. 2
plasminogen (human) [7] = target: plasminogen (human) (UniProt P00747); experiment: SPR, multi-cycle; G11 immobilised on the chip, plasminogen injected as analyte; 1:1 Langmuir fit

T1 sequence (P00747 20-580, chain 1 of 2): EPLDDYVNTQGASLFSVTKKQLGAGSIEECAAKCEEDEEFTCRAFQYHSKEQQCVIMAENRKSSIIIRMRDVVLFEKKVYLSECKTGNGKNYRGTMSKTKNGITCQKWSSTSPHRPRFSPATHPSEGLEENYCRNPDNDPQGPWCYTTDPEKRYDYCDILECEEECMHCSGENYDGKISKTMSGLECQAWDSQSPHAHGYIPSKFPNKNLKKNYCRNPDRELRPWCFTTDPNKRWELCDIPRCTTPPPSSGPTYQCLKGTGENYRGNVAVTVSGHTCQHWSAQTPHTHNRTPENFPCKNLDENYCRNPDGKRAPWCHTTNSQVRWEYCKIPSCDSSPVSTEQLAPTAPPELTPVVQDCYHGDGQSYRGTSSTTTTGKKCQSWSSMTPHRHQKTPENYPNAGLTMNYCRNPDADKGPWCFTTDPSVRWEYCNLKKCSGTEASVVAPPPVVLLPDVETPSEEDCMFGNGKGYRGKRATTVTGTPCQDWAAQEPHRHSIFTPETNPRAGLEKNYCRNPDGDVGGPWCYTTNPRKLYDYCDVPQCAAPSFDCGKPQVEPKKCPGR
T1 sequence (P00747 581-810, chain 2 of 2): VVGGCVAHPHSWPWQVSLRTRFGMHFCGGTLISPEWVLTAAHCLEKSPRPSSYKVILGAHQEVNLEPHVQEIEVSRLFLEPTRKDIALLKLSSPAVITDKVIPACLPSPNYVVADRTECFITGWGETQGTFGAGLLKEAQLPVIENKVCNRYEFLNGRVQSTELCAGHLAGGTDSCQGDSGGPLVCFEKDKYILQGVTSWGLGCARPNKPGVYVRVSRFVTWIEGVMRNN

| Binder | IC50 of tPA-mediated plasminogen activation in solution (20 nM plasminogen, 20 mM EACA, 4 nM tPA, fluorogenic plasmin substrate) (plasminogen (human) [1]) [nM] | IC50 of tPA-mediated plasminogen activation on a preformed fibrin clot (100 nM plasminogen) (plasminogen (human) [1]) [nM] | fold greater affinity for plasminogen compared to plasmin (plasminogen (human) [2]) [fold] | percent inhibition of plasminogen binding to GAS cells [3] [%] | Kd (plasminogen (human) [4]) [nM] | koff (plasminogen (human) [4]) [s⁻¹] | kon (plasminogen (human) [4]) [M⁻¹ s⁻¹] | Kd (plasmin) [nM] | koff (plasmin) [s⁻¹] | kon (plasmin) [M⁻¹ s⁻¹] | percent reduction in plasminogen binding to GAS cells [5] [%] | fold greater affinity for plasminogen compared to plasmin (plasminogen (human) [6]) [fold] | Kd (plasminogen (human) [7]) [nM] | koff (plasminogen (human) [7]) [s⁻¹] | kon (plasminogen (human) [7]) [M⁻¹ s⁻¹] |
| --- | --- | --- | --- | --- | --- | --- | --- | --- | --- | --- | --- | --- | --- | --- | --- |
| G05 antibody (scFv, V domains shown, Chicken antibody from an scFv library (VH and VL joined by a flexible linker); also called scFv fragment of G05) VH: AVTLDESGGGLQTPGRALSLVCKASGFTFSSYAMHWVRQAPGKGLEFVAGIDNIGSYTRYGAAVKGRVTISRDNGQSIVRLQLDNLRAEDTGTYYCAKSAYGGSCCGPAYIDAWGHGTEVIVSS VL: QAALTQPSSVSANPGETVEITCSGGGRSSYYGWYQQKSPGSAPVTLIYDNTNRPSNIPSRFSGSKSGSTATLTITGVQGEDEAVYFCGSADSSTTGIFGAGTTLTVL | 17.3 | 292 | 10 | 40 | 7.9 | 0.00071 | 409000 | 0.76 | 0.00046 | 640000 | 70 | – | – | – | – |
| G11 antibody (scFv, part only; not given: linker between domains, part only) scFv, part: QAALTQPSSVSANPGEIVEITCSGGGTYYGWYQQKSPGSAPVTMIYQNNQRPSNIPSRFSGSGSGPANTLTITGVRAEDEAVYYCGGYDSSAGYATFGAGTTLTVLAVTLDESGGGLQTPGGGLSLVCKASGFSISSYSMYWVRQAPGKGLEFVASISSDGSDTSYGSAVKGRATISRDNGQSTVRLQLNYLRAEDTGTYFCAKPTGGYYTWYETGSIDTWGHGTEVIVSS | 20 | 47 | – | – | – | – | – | – | – | – | – | 10 | 14 | 0.0018 | 420000 |
